Assay results reported in patent publication US20020002269A1, “ARTEMIN, A NEUROTROPHIC FACTOR” (priority 1998, published 2002).

B1: GDNF: recombinant human mature GDNF obtained from Genentech (protein, UniProt P39905 78-211, looked up)
Glial cell line-derived …: SPDKQMAVLPRRERNRQAAAANPENSRGKGRRGQRGKNRGCVLTAIHLNVTDLGLGYETKEELIFRYCSGSCDAAETTYDKILKNLSRNRRLVSDKVGQACCRPIAFDDDLSFLDDNLVYHILRKHSAKRCGCI

Key:
[1] = target: T1, GFRα1/RET (UniProt P07949+Q62997); assay: Ga14-Elk/Ga14-Luc reporter in RET-3T3 fibroblasts transfected with GFRα1; type: cell-based, rat GFRα1, human RET; settings: FIG. 10A; for activation of RET signaling in cells expressing GFRα1/RET (luciferase reporter): RET-3T3, 50 ng/ml for 6-8 hours
T1 construct: expressed in transfected cells; host or cells: MG87 fibroblasts stably expressing human RET (RET-3T3), transiently transfected with the CMV-GFRα1 plasmid
T1 sequence (Q62997 25-430 limits assumed): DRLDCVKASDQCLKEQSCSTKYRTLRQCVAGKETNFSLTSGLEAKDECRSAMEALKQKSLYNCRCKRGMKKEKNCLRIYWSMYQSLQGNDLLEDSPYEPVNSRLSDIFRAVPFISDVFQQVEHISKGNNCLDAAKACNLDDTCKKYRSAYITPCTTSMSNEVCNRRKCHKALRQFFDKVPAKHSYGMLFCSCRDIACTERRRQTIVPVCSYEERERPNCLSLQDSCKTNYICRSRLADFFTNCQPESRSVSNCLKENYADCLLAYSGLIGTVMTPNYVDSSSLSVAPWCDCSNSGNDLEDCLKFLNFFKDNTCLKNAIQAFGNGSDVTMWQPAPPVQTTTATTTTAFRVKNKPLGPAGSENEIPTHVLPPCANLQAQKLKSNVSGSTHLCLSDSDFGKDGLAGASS
T1 sequence (P07949 29-1114): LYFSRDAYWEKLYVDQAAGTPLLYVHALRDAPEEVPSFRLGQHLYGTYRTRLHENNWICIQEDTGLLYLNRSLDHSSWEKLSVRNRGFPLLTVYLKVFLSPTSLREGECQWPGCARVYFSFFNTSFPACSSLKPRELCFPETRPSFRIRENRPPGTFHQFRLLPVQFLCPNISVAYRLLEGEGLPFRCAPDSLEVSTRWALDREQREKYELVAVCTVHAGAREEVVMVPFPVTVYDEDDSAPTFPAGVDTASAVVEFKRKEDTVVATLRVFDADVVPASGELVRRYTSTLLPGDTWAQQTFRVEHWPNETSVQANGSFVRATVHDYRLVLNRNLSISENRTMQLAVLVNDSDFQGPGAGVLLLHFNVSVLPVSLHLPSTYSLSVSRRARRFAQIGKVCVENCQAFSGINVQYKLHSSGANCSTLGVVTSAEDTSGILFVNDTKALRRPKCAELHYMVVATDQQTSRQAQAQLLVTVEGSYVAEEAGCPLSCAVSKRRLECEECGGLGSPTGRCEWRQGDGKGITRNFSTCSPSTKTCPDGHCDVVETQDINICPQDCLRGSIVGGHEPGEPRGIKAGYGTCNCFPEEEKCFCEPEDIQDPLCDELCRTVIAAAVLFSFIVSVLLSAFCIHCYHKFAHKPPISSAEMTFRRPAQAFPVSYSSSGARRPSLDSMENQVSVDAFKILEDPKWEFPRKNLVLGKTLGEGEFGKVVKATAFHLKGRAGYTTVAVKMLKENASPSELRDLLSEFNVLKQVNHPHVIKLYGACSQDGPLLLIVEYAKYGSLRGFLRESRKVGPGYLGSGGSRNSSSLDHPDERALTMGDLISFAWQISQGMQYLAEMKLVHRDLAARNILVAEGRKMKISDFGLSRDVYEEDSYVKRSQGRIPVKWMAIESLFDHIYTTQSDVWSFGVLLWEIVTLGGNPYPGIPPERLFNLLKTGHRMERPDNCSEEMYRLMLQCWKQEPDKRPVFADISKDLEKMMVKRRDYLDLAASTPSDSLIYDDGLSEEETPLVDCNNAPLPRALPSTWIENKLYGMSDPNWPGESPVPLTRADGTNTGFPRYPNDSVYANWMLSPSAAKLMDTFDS
From the text: Thus, to directly test which receptor combinations can form functional receptors for artemin, expression plasmids for the individual GFRA coreceptors together with the Ga14-Elk/Ga14-Luc reporter system were transiently transformed into fibroblasts that stably express RET. This system, which utilizes the ability of the Ga14-Elk fusion protein to respond to MAP kinase activity and activate transcription of the Ga14-luciferase reporter, has been used previously to monitor NGF/TrkA activation of the MAP kinase pathway in PC12 cells (Vossler et al., Cell 89:73-82, 1997; York et al., Nature 392:622-626, 1998), and GDNF/RET activation of MAP kinase in neuroblastoma cell lines (Worby et al., 1998, supra; Worby et al., J. Biol. Chem. 271:23619-23622, 1996).
Generation of the expression plasmids for rat GFRα1 and human GFRα2, as well as MG87 fibroblasts stably expressing human RET (RET-3T3), were described in detail previously (Baloh et al., 1997, supra; Creedon et al., 1997, supra). […]
NLF neuroblastoma cells, which naturally express GFRα2/RET (Tansey et al., submitted), or the RET-3T3 cells were plated at 85,000 cells/well in 12-well plates, and cotransfected with the reporter plasmids Ga14-Luc and CMV-Ga14-Elk (250 ng/well and 50 ng/well, respectively), CMV-lacZ (50 ng/well) for transfection normalization, one of the CMV-GFRA expression plasmids (500 ng/well), and pBluescript (650 ng/well) as carrier for a total of 1.5 μg DNA/well using the Superfect reagent (Qiagen) according to the manufacturer's instructions. […] Measurement of luciferase and β-galactosidase activity was measured using a luminometer and performed as described (Svaren et al., EMBO J 17:6010-6019, 1998). The average luciferase activity of duplicate samples was normalized to β-galactosidase activity of the cotransformed lacZ reporter, and fold activation was calculated by dividing the normalized activity in factor-treated cells by that in the no treatment control.

[2] = target: T2, RET (Rattus norvegicus, UniProt G3V9H8); assay: Western blot of RET phosphorylation and MAP kinase activation in SCG neurons; type: cell-based; settings: 50 ng/ml for 20 minutes, FIG. 9A
T2 construct: endogenous in cells
T2 sequence (G3V9H8 24-1115): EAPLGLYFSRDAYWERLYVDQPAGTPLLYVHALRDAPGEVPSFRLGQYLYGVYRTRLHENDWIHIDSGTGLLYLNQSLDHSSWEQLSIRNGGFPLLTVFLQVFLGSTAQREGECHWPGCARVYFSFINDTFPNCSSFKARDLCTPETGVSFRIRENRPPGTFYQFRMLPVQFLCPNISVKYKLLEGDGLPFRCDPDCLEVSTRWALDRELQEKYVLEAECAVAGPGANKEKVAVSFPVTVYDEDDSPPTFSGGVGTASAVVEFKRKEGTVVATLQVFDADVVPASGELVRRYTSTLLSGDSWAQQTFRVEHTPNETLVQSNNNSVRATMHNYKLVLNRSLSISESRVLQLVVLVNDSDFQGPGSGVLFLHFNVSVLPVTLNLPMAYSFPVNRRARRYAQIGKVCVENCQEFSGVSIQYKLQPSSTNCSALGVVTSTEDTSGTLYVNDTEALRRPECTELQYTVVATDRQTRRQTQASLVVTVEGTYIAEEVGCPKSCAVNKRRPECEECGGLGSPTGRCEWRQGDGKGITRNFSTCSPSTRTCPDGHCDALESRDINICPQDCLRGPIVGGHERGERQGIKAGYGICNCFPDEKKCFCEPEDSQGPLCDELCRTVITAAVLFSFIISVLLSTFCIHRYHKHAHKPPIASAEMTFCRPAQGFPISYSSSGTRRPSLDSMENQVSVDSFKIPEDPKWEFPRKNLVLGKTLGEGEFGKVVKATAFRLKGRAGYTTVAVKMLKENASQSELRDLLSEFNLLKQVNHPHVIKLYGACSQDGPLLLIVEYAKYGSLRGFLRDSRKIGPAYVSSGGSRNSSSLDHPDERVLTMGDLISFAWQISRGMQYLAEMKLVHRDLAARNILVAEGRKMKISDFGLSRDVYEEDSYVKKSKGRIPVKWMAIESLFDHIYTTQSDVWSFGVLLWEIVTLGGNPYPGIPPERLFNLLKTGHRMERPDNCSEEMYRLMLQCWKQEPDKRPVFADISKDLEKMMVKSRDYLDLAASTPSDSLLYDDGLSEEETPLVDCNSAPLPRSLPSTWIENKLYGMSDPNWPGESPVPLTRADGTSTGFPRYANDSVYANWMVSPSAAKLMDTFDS
Method: (§1) In brief, SCG neurons were dissected from postnatal day 1 (P1) rats and maintained in NGF-containing medium for 5 days, after which they were deprived of NGF by switching to NGF-free medium in the presence of anti-NGF antibodies. After 2 hours without NGF, neurons were switched to medium containing NGF, GDNF or artemin at 50 ng/ml for 20 minutes. Cells were washed in cold PBS, and collected in immunoprecipitation buffer (1 mM EDTA/1 mM EGTA/0.2 mM NaVO3/1 mM Pefabloc/1 uM pepstatin A/10 ug/ml leupeptin/2 ug/ml aprotinin/1% Triton X-100/0.5% Nonidet P-40/150 mM NaCl in 10 mM Tris, pH 7.4). The lysates were incubated with 30 μl agarose-conjugated anti-phosphotyrosine antibodies (Calbiochem) at 4° C. for 1 hr. Beads were then washed three times with immunoprecipitation buffer, resuspended in SDS sample buffer, and boiled for 5 min. Samples were separated using SDS-PAGE, and transferred to nitrocellulose membranes. Membranes were blocked for 1 hr at 25° C. in TBS containing 5% dry milk, incubated overnight 4° C. with a 1:300 dilution of anti-Ret antibody (C-19; Santa Cruz), then washed (3× in TBS containing 0.1% Tween-20) and incubated in a 1:10,000 dilution of anti-rabbit antibodies conjugated to HRP (Jackson Immunoresearch). Membranes were washed 3×, incubated with SuperSignal ULTRA (Pierce) for 5 minutes, then exposed to film. For MAP kinase (MAPK) assays, a portion of the total lysate wars removed before immunoprecipitation, separated by SDS-PAGE, and immunoblotted using an anti-phospho-MAP-kinase antibody (New England Biolabs).

[3] = system: CHP134 neuroblastoma cell line; assay: Responsiveness of a neuroblastoma cell line that does not express RET (CHP134); type: cell-based; settings: data not shown
[4] = system: SAN neuroblastoma cell line; assay: Responsiveness of a neuroblastoma cell line that does not express RET (SAN); type: cell-based; settings: data not shown
[5] = target: T3, RET (Homo sapiens, UniProt P07949); assay: Western blot of RET phosphorylation and MAP kinase activation in NBL-S cells, with or without PI-PLC; type: cell-based; settings: FIG. 9B
T3 construct: both the SH-SY5Y and NBL-S cell lines express GFRα1, GFRα2, and GFRα3, as well as RET; endogenous in cells; host or cells: NBL-S neuroblastoma cells
T3 sequence (P07949 29-1114): as the sequence (P07949 29-1114) above
Method: as §1
NBL-S cells were plated at 3×10^5 cells/well in 6-well plates, and after 46 hr switched to low-serum (0.5%) medium for 2 hr, and then stimulated with NGF, GDNF or artemin (50 ng/ml) for 20 min. Cells were then collected and analyzed as above. For PI-PLC treatment, a parallel set of NBL-S cells were plated as above but treated with 500 mU/ml of PI-PLC (Boehringer-Mannheim) for 1 hr, and washed with PBS and stimulated with factors as above.

Molecule	activation of RET signaling in cells expressing GFRα1/RET (luciferase reporter) [1]	degree of RET activation in cells expressing GFRα1/RET compared with GDNF ([1]; RET-3T3, 50 ng/ml)	downstream signaling (activation of the MAP kinase pathway) in SCG neurons [2]	tyrosine-phosphorylation of RET in SCG neurons [2]	response of CHP134 cells [3]	response of SAN cells [4]	downstream signaling (activation of the MAP kinase pathway) in NBL-S cells ([5]; 50 ng/ml for 20 min)	tyrosine-phosphorylation of RET in NBL-S cells ([5]; 50 ng/ml for 20 min)	effect of PI-PLC pretreatment on signaling in NBL-S cells ([5]; 500 mU/ml PI-PLC for 1 hr, then factor 50 ng/ml for 20 min)
artemin: recombinant mature human artemin (FIG. 3A, SEQ ID NO:3) with 8-histidine tag, produced in E. coli; GDNF family neurotrophic factor	able to activate RET in cells expressing GFRα1/RET	to a lesser degree than GDNF	effective in eliciting downstream signaling	induced tyrosine-phosphorylation of RET	did not respond	did not respond	effective in eliciting downstream signaling	induced tyrosine-phosphorylation of RET	abolished artemin's ability to activate RET and all downstream signaling
B1	activated RET signaling			induced tyrosine-phosphorylation of RET	did not respond	did not respond		induced tyrosine-phosphorylation of RET	
